Assay results: patent US6506592 (BOARD OF REGENTS OF THE UNIVERSITY OF NEBRASKA, dated 2003)

Biological target: T1, Staphylococcus protein A (Staphylococcus, UniProt P38507 37-477)
T1 construct: Used to remove antibody-antigen complexes in the immunoprecipitation
Assay: immunoprecipitation from T2 plant MI52E extract; residual alpha-glucosidase activity in the supernatant
Method: Tobacco leaf extracts to be used for detection of glycosyl hydrolase antigens were concentrated 3-fold by (NH_4)_2 SO_4 precipitation. […] Proteins (Amersham) were transferred to nitrocellulose and incubated. […] Concentrated plant protein extracts were diluted 1:10 in 10 mM tris-Cl pH 7.0. 50 ul of anti-malA antibodies were added to 200 ul of diluted extract and incubated for 2 hours at 4° C. with gentle agitation. […] Blots were soaked with a chemiluminescent substrate solution (Amersham) and results visualized by autoradiography and quantified by densitometry.
The residual activity remaining in the treated samples was then determined by enzyme assay.

B1: Sulfolobus solfataricus alpha-glucosidase (malA protein), recombinant (enzyme)
chain: MQTIKIYENKGVYKVVIGEPFPPIEFPLEQKISSNKSLSELGLTIVQQGNKVIVEKSLDLKEHIIGLGEKAFELDRKRKRYVMYNVDAGAYKKYQDPLYVSIPLFISVKDGVATGYFFNSASKVIFDVGLEEYDKVIVTIPEDSVEFYVIEGPRIEDVLEKYTELTGKPFLPPMWAFGYMISRYSYYPQDKVVELVDIMQKEGFRVAGVFLDIHYMDSYKLFTWHPYRFPEPKKLIDELHKRNVKLITIVDHGIRVDQNYSPFLSGMGKFCEIESGELFVGKMWPGTTVYPDFFREDTREWWAGLISEWLSQGVDGIWLDMNEPTDFSRAIEIRDVLSSLPVQFRDDRLVTTFPDNVVHYLRGKRVKHEKVRNAYPLYEAMATFKGFRTSHRNEIFILSRAGYAGIQRYAFIWTGDNTPSWDDLKLQLQLVLGLSISGVPFVGCDIGGFQGRNFAEIDNSMDLLVKYYALALFFPFYRSHKATDGIDTEPVFLPDYYKEKVKEIVELRYKFLPYIYSLALEASEKGHPVIRPLFYEFQDDDDMYRIEDEYMVGKYLLYAPIVSKEESRLVTLPRGKWYNYWNGEIINGKSVVKSTHELPIYLREGSIIPLEGDELIVYGETSFKRYDNAEITSSSNEIKFSREIYVSKLTITSEKPVSKIIVDDSKEIQVEKTMQNTYVAKINQKIRGKINLE
notes: 693 amino acids, 80.5 kDa subunit; Assayed as produced in transgenic tobacco (T2 plant MI52E extract) and as an E. coli-derived positive control; both come from the same malA coding region; also called malA polypeptide; recombinant alpha-glucosidase
Does B1 bind?
Result: no binding
